The text below walks through data of article PMC3354533.

In this assay the target is endogenous calcineurin A (CaNA) in mouse primary cortical neurons (mouse (endogenous in primary cortical neurons)) (UniProt P63328). In words: FRET or BRET.

As for “endogenous calcineurin B subunit (CaNB) in mouse primary cortical neurons (from UniProt Q63810 1-170) (natural protein)”, the 565/522 ratio, spine, AD brain SEC fraction 60 min was determined as 0.451; the FRET Ratio increase, cytoplasm, 6 hours of TgCM is 0.51; the FRET Ratio increase, nucleus, 6 hours of TgCM came to 0.49; the peak of the FRET distribution in spines, 15 min of TgCM came to 0.45. The peak of the FRET distribution in spines, 30 min of TgCM was 0.48 and the peak of the FRET distribution in spines, 60 min of TgCM was 0.48.
Take “endogenous calmodulin (CaM) in mouse primary cortical neurons (from UniProt P0DP26 1-149) (natural protein)”: the peak of the FRET distribution in spines, 15 min of TgCM worked out at 0.38; the peak of the FRET distribution in spines, 30 min of TgCM turned out to be 0.39; the peak of the FRET distribution in spines, 60 min of TgCM was determined as 0.4.
